Source: the supplement of paper PMC10126150
± gives the standard deviation of the averaged measurements.

Each sequence was assayed on ATP (assay: switch fluorescence ratio, 500 uM ATP over buffer (Cy3 cluster intensity, sum of 5 cycles each) (fold (ratio)); higher = stronger signal-on switching upon ATP binding; sequences stand for … in TCGTCGGCAGCGTCAGATGTGTATAAGAGACAGTTTTTTTTTTTTTTTTTTTTTTTTT…TC). Details: aptamer strand: ATP DNA aptamer (quencher-CACCTGGGGGAGTATTGCGGAGGAAGG + anchor), 100 nM annealed; ATP concentration: 500 uM.
How it was run: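 Imaging in selection buffer was followed by imaging after 15 min with 500 uM ATP at 22 °C, for Cy3-labelled switching-strand clusters annealed to 100 nM quencher-labelled ATP aptamer on a modified Illumina MiSeq flow-cell. Five of these buffer/ATP cycles ran, separated by NaOH stripping and re-annealing. The fluorescence ratio per cluster is summed target-cycle over summed buffer-cycle Cy3 intensity, averaged per switch-domain sequence; clusters outside 100-1000 RFU were removed.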
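Also: ATP exposure 15 min at 22 °C before imaging.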

Sequence	switch fluorescence ratio
AGGAGATTCA	0.959 ± 0.041
AGGAGCGTCG	1.01 ± 0.013
AGGAGCTAGT	1.01 ± 0.038
AGGAGCTGGT	1.02 ± 0.012
AGGAGGCTTC	0.983 ± 0.029
AGGAGGGGGC	1 ± 0.048
AGGAGGGTAA	1.024 ± 0.0031
AGGAGGGTTA	1 ± 0.028
AGGAGGTAAA	1.002 ± 0.0034
AGGAGGTGGG	0.981 ± 0.017
AGGAGTAGTC	0.996 ± 0.021
AGGAGTATTA	0.983 ± 0.018
AGGAGTCGGT	1.01 ± 0.012
AGGAGTTATT	1 ± 0.024
AGGAGTTGAA	0.978 ± 0.016
AGGATAAACT	1 ± 0.013
AGGATAACCG	1.028 ± 0.0012
AGGATACGGT	1.0054 ± 0.00059
AGGATATCAG	0.991 ± 0.027
AGGATATGGC	1.09 ± 0.12
AGGATGACAG	0.998 ± 0.04
AGGATGATGT	1.01 ± 0.032
AGGATGGACC	1.01 ± 0.024
AGGATGGAGG	1.035 ± 0.0019
AGGATGGTTT	1.002 ± 0.0077
AGGATGTTAT	1 ± 0.016

Sequence	switch fluorescence ratio
AGGATTCGGT	1.01 ± 0.027
AGGATTGAGT	1.024 ± 0.0094
AGGCAAATGC	1.25 ± 0.1
AGGCAACGAA	1.04 ± 0.039
AGGCAATTGT	1.026 ± 0.01
AGGCAGAGTA	0.992 ± 0.038
AGGCATATAG	1.09 ± 0.077
AGGCATTATA	1.01 ± 0.013
AGGCATTGGG	1.0154 ± 0.00096
AGGCCACTGA	1.034 ± 0.0011
AGGCCATAAG	0.9953 ± 0.0034
AGGCCCGGGA	0.997 ± 0.013
AGGCGAAGGG	0.993 ± 0.032
AGGCGGAAGT	1.014 ± 0.0031
AGGCGGGGGG	1.02 ± 0.041
AGGCGGGGTG	1.04 ± 0.024
AGGCGGGTAT	1.015 ± 0.0028
AGGCGGGTGG	1.03 ± 0.019
AGGCGTAAAA	0.985 ± 0.019
AGGCGTATTT	0.9987 ± 0.0062
AGGCGTTGGG	1.01 ± 0.015
AGGCTATATT	0.975 ± 0.01
AGGCTTAAAT	0.989 ± 0.025
AGGCTTATCG	1.02 ± 0.024
AGGCTTGATG	0.972 ± 0.033
AGGGAAAGCG	0.996 ± 0.044

Sequence	switch fluorescence ratio
AGGGAAAGGT	1.06 ± 0.05
AGGGAAATTT	0.99 ± 0.014
AGGGAACCGC	1.016 ± 0.0062
AGGGAACGAT	0.9693 ± 0.0022
AGGGAACTGT	0.97 ± 0.056
AGGGAAGCTT	0.972 ± 0.035
AGGGAATAGA	0.989 ± 0.0094
AGGGAATAGG	1.01 ± 0.041
AGGGAATATT	1.01 ± 0.027
AGGGACATGC	1.0581 ± 0.00016
AGGGACGAAT	1.25 ± 0.092
AGGGACGGAG	1.01 ± 0.034
AGGGACTGGT	1.01 ± 0.036
AGGGAGAAAA	0.974 ± 0.039
AGGGAGAGCG	0.991 ± 0.071
AGGGAGAGTC	1.036 ± 0.0025
AGGGAGATAG	0.986 ± 0.016
AGGGAGCAGA	0.9948 ± 0.0059
AGGGAGCGAA	1.003 ± 0.0097
AGGGAGCGGC	1.11 ± 0.035
AGGGAGGGCT	1.02 ± 0.02
AGGGAGGTGG	1.02 ± 0.026
AGGGAGTTTG	0.983 ± 0.021
AGGGATACCT	1.04 ± 0.018
